# In US20120135912A1 (PERSEID THERAPEUTICS, published 2012):
# Legend:
# [1] = molecular target: T1, human LPAM-1-Fc (alpha4-Fc/beta7-Fc heterodimer) (human); assay: SPR (BIACORE) as in Example 12, polypeptide purified from E. coli as analyte on captured LPAM-1-Fc; KD drawn as bars (Example 20)
# T1 construct: Soluble heterodimer from CHO cells, Protein A purified
# [2] = molecular target: T2, human VLA4-Fc (alpha4-Fc/beta1-Fc heterodimer) (human); assay: SPR (BIACORE) as in Example 12, polypeptide purified from E. coli as analyte on captured VLA4-Fc; the black bar is broken and the value is written over it (Example 20)
# T2 construct: Soluble heterodimer from CHO cells, Protein A purified; also called VLA-Fc
# [3] = molecular target: T2, human VLA4-Fc (alpha4-Fc/beta1-Fc …); assay: ELISA, VLA4-Fc coated, 1 mM MnCl2; from EC50 values
# Experimental: The relative binding affinities of various 2D-VCAM-1 variants to immobilized VLA4-Fc (α4-β1-Fc) heterodimer, relative to a control protein (e.g., Q38L-2D-VCAM-1 or to human 2D-VCAM-1), were deter using a solid-phase ELISA assay. MAXISORP™ ELISA plates (NUNC) were coated overnight at 4° C. with 50 ul VLA4-Fc heterodimer, 2 ug/ml in TBS-M (TBS (25 mM Tris-HCl pH 7.5, 150 mM NaCl) with 1 mM MnCl2), washed with TBS-T (TBS with 0.05% TWEEN-20), blocked with 200 ul 3% milk in TBS-M for 1 h at room temperature, and washed again with TBS-T. A four-fold dilution series of the purified 2D-VCAM variants to be assayed was made in COSTAR U-bottom plates in TBS-TMC (TBS with 0.05% Tween-20, 1 mM MnCl2, and 1% casein; Sigma) with a starting concentration of 8.2 uM (200 ug/ml). The dilution series was transferred into the ELISA plate which was incubated at room temperature for 2 h and subsequently washed with TBS-T. Bound 2D-VCAM protein was detected by incubation with 0.5 ug/ml of biotinylated anti-human VCAM antibody (R&D Systems, Catalog No. BAF809) in TBS-TMC for 1 h at room temperature followed by a TBS-MT (TBS plus 1 mM MnCl2 and 0.02% TWEEN-20) wash and subsequent incubation with 1:2000 dilution of streptavidin-HRP (BD Biosciences, Catalog No. 554066) in TBS-TMC for 30 min at room temperature. […] Typical development times ranged from […] and development was stopped by addition of 50 ul 2M H₂SO₄ (EM, Catalog No. SX1244-75). […] Fold-improvement in binding was calculated relative to a control protein (e.g., Q38L-2D-VCAM-1 or human 2D-VCAM-1) assayed on the same plate.
# [4] = molecular target: T1, human LPAM-1-Fc (alpha4-Fc/beta7-Fc …); assay: ELISA, LPAM-1-Fc coated, 1 mM MnCl2; from EC50 values
# Experimental: The relative binding affinities of various 2D-VCAM variant proteins to immobilized LPAM-1-Fc (α4-Fc/β-7-Fc) heterodimer, relative to a control protein (e.g., Q38L-2D-VCAM-1 or human 2D-VCAM-1), were determined using a solid-phase ELISA assay. MAXISORP™ ELISA plates (NUNC) were coated overnight at 4° C. with 50 ul LPAM-1-Fc heterodimer (2 ug/ml in TBS-M, TBS (25 mM TRIS-HCl pH 7.5, 150 mM NaCl with 1 mM MnCl2), washed with TBS-T (TBS with 0.05% Tween-20), blocked with 200 ul 3% milk in TBS-M for 1 hr at room temperature, and washed again with TBS-T. A four-fold dilution series of the purified 2D-VCAM-1 variants to he assayed was made in COSTAR U-bottom plates in TBS-TMC (TBS with 0.05% Tween-20, 1 mM MnCl2 and 1% casein; Sigma) with a starting concentration of 8.2 uM (200 ug/ml). The dilution, series were transferred into the ELISA plate which was incubated at room temperature for 2 h and subsequently washed with TBS-T. Bound 2D-VCAM-1 protein was detected by incubation with 0.5 ug/ml of biotinylated anti-human VCAM antibody (R&D Systems, Catalog No. BAF809) in TBS-TMC for 1 h at room temperature followed by a TBS-T wash and subsequent incubation with 1:2000 dilution of streptavidin-HRP (BD Biosciences, Catalog No. 554066) in TBS-TMC for 30 min at room temperature. […] Typical development times ranged from 5-15 min and development was stopped by addition of 50 ul 2M H₂SO₄ (EM, Catalog No. SX1244-75). […] Fold-improvement in binding was calculated relative to a control protein (Q38L-2D-VCAM-1) assayed on the same plate.
# [5] = molecular target: T2, human VLA4-Fc (alpha4-Fc/beta1-Fc …); assay: SPR (BIACORE), VLA4-Fc captured by anti-human IgG, 1 mM MnCl2, 1:1 Langmuir
# Experimental: (§1) The kinetic 2D-VCAM-1 assay measures binding kinetics of a dimeric ligand (e.g., VLA-Fc fusion protein or LPAM-1-Fc fusion protein) coated to sensor chips and monomeric analyte (e.g., 2D-VCAM-1 variant polypeptides) in the mobile phase. Goat anti-human IgG antibody (Jackson ImmunoResearch, Catalog No. 105-005-098) was immobilized on CM-5 sensor chips (GE Healthcare, Catalog No. BR-1000-14) according to the manufacturer's protocol. Antibody was diluted to 30 μg/ml in immobilization buffer (10 mM sodium acetate, pH 5.0 (GE Healthcare, Catalog No. BR-1003-51)). […] Un-reacted sites were quenched with 35 μl of 1 M ethanolamine-HCl pH 8.5 (GE Healthcare, Catalog No. BR-1000-50). This procedure typically yielded 15,000 response units (RU) of coupled antibody. VLA4-Fc or LPAM-1-Fc, prepared as described in Examples 3 and 4, respectively, were bound to antibody-coated sensor chips by injection of 20 μl of ligand solution (20 μg/ml protein in HBS-P-Mn buffer at a flow rate of 10 μl/min). Ligand capture levels were typically 200-300 RU. 2D-VCAM-1 variant polypeptides were diluted in HBS-P-Mn and flowed over ligand-coated sensor chips for 2 min at 30 μl/min, followed by 5 min incubation with in HBS-P-Mn containing no protein at the same flow rate. For 2D-VCAM-1 variant polypeptides having very slow dissociation rates from VLA4-Fc or LPAM-1-Fc, kinetic assays were also conducted using longer dissociation times (e.g., 20 min). Rmax signal levels for 2D-VCAM-1 variant polypeptides ranged from approximately 5-25 RU. Regeneration between cycles was performed by 200 sec incubation with 10 mM glycine buffer (pH 1.7) at 50 μl/min. New chips were subjected to 4-5 cycles of capture/binding/regeneration prior to use in actual experiments. Data from a reference cell containing goat anti-human IgG capture antibody alone was subtracted from data obtained from flow cells containing captured VLA4-Fc or LPAM-1-Fc. Typically, 8 dilutions of 2D-VCAM-1 variant polypeptides ranging from 150 nM to 0.069 nM were analyzed against a blank reference (HBS-P-Mn buffer alone).
# [6] = molecular target: T1, human LPAM-1-Fc (alpha4-Fc/beta7-Fc …); assay: SPR (BIACORE), LPAM-1-Fc captured by anti-human IgG, 1 mM MnCl2, 1:1 Langmuir
# Experimental: as §1
# T2 sequence (chain, as listed by the source limits assumed, form in doubt, chain 1 of 2): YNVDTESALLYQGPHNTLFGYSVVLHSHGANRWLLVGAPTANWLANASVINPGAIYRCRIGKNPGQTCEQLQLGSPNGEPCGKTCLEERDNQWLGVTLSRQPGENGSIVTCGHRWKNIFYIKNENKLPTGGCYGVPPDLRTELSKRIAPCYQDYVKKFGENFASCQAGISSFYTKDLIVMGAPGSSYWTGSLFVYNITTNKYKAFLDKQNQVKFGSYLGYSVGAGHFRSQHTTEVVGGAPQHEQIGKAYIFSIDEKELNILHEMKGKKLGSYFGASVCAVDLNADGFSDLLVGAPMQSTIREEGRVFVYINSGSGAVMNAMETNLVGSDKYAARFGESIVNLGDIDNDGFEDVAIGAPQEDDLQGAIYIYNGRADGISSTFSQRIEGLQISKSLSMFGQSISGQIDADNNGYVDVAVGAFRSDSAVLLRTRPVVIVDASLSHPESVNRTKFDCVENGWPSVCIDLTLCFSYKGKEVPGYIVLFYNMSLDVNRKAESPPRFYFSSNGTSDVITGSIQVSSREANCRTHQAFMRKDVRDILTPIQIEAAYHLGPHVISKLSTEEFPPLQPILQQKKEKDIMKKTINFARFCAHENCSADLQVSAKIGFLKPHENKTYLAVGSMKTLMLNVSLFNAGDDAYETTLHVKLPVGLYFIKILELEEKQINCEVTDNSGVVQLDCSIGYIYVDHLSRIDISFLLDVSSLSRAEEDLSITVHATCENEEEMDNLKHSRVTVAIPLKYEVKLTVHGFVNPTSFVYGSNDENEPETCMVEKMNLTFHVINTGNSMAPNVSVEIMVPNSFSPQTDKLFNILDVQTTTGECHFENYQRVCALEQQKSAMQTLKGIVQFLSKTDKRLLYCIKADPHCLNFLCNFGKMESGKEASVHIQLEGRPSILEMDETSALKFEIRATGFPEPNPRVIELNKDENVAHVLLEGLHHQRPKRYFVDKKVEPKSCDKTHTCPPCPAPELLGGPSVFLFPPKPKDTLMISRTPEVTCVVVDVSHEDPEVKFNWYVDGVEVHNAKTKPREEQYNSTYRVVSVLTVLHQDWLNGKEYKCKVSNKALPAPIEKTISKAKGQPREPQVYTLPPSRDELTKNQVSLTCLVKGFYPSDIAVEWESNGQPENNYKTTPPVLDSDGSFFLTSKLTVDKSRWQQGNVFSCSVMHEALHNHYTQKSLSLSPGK
# T2 sequence (chain, as listed by the source limits assumed, form in doubt, chain 2 of 2): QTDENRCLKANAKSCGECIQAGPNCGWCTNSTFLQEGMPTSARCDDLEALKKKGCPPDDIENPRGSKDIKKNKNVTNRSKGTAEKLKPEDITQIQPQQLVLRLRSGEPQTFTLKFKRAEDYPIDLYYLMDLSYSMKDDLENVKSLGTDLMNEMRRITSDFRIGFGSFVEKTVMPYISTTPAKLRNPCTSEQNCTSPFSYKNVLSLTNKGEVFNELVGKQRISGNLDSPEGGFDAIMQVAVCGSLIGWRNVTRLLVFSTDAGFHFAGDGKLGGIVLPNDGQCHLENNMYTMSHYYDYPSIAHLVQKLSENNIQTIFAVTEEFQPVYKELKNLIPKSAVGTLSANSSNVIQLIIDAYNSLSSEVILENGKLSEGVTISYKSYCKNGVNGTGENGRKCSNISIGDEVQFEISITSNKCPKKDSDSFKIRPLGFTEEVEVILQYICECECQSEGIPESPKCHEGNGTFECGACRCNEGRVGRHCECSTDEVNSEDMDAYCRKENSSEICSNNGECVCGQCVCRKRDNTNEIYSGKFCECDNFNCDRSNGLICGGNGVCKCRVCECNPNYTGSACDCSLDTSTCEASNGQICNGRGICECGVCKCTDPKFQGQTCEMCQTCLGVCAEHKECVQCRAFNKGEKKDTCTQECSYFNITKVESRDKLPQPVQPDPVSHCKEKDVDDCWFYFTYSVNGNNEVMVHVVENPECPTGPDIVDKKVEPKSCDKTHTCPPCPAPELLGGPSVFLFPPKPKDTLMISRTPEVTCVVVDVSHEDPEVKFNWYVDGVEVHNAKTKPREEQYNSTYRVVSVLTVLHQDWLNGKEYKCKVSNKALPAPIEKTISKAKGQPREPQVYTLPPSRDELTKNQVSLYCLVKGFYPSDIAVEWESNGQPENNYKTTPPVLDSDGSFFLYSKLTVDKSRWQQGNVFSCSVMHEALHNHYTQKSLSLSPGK
# T1 sequence (chain, as listed by the source limits assumed, chain 1 of 2): as the sequence (chain, as listed by the source limits assumed, form in doubt, chain 1 of 2) above
# T1 sequence (chain, as listed by the source limits assumed, chain 2 of 2): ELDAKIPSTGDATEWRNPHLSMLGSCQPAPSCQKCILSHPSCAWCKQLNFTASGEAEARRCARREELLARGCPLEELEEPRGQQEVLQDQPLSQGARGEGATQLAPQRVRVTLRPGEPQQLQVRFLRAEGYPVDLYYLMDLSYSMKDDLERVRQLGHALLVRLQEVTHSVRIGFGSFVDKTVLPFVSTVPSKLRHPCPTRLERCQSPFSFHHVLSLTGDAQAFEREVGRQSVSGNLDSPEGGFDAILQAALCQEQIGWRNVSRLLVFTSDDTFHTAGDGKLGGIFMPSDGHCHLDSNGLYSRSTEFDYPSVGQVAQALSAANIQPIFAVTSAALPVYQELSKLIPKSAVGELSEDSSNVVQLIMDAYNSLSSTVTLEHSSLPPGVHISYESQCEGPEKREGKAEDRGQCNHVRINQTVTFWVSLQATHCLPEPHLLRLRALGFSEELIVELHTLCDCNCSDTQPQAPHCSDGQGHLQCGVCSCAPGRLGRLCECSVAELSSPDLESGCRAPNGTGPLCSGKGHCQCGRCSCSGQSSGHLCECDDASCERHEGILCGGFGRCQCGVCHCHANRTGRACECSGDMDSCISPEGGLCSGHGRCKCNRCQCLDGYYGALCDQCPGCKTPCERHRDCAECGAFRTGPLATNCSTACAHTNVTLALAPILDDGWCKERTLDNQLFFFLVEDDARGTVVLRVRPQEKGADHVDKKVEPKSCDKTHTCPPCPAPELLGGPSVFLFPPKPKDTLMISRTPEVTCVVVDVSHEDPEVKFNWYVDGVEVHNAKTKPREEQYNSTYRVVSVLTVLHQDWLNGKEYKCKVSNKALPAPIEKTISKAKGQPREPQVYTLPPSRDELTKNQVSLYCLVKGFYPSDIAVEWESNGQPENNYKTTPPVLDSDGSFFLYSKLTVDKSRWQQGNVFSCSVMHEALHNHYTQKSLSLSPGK
binder,measurement,setting,value
"R1R6R7 (ligand, also called 146R1R6R7) 2D-VCAM-1 variant polypeptide: MFKIETTPESRYLAQIGDSVSLTCSTTGCESPFFFWRPLLDSPLNGKVTNEGTTSTLTMNPVSFGNEHSYLCTATCESRKLEKGIQVEIYSFPKDPEIHLSGPLEAGKPITVKCSVADVYPFDRLEIDLLKGDHLMKSQEFLEDADRKSLETKSLEVTFTPVIEDIGKVLVCRAKLHIDEMDSVPTVRQAVKELQVYISP",binding result,[1],binds
"R6R7 (ligand, also called 146R6R7) 2D-VCAM-1 variant polypeptide: MFKIETTPESRYLAQIGDSVSLTCSTTGCESPLFFWRPLLDSPLNGKVTNEGTTSTLTMNPVSFGNEHSYLCTATCESRKLEKGIQVEIYSFPKDPEIHLSGPLEAGKPITVKCSVADVYPFDRLEIDLLKGDHLMKSQEFLEDADRKSLETKSLEVTFTPVIEDIGKVLVCRAKLHIDEMDSVPTVRQAVKELQVYISP",binding result,[1],binds
"R3R7 (ligand, also called 146R3R7) 2D-VCAM-1 variant polypeptide: MFKIETTPESRYLAQIGDSVSLTCSTTGCESPLFFWRTLLDSPLNGKVTNEGTTSTLTMNPVSFGNEHSYLCTARCESRKLEKGIQVEIYSFPKDPEIHLSGPLEAGKPITVKCSVADVYPFDRLEIDLLKGDHLMKSQEFLEDADRKSLETKSLEVTFTPVIEDIGKVLVCRAKLHIDEMDSVPTVRQAVKELQVYISP",binding result,[1],binds
"R3R5R7 (ligand, also called 146R3R5R7) 2D-VCAM-1 variant polypeptide: MFKIETTPESRYLAQIGDSVSLTCSTTGCESPLFFWRTLIDSPLNGKVTNEGTTSTLTMNPVSFGNEHSYLCTARCESRKLEKGIQVEIYSFPKDPEIHLSGPLEAGKPITVKCSVADVYPFDRLEIDLLKGDHLMKSQEFLEDADRKSLETKSLEVTFTPVIEDIGKVLVCRAKLHIDEMDSVPTVRQAVKELQVYISP",binding result,[1],binds
same,Kd,[2],0.25 nM
"R5R7 (ligand, also called 146R5R7) 2D-VCAM-1 variant polypeptide: MFKIETTPESRYLAQIGDSVSLTCSTTGCESPLFFWRPLIDSPLNGKVTNEGTTSTLTMNPVSFGNEHSYLCTARCESRKLEKGIQVEIYSFPKDPEIHLSGPLEAGKPITVKCSVADVYPFDRLEIDLLKGDHLMKSQEFLEDADRKSLETKSLEVTFTPVIEDIGKVLVCRAKLHIDEMDSVPTVRQAVKELQVYISP",binding result,[1],binds
"2D-VCAM-1 variant Clone 147 (ligand, not shown: His tag) FKIETTPESRYLAQIGDSVSLTCSTTGCESPSFYWRPLLDSPLNGKVTNEGTTSTLTMNPVSFGNEHSYLCTAACESRRLEKGIQVEIYSFPKDPEIHLSGPLEAGKPITVKCSVADVYPFDRLEIDLLKGDHLMKSQEFLEDADRKSLETKSLEVTFTPVIEDIGKVLVCRAKLHIDEMDSVPTVRQAVKELQVYISP",fold-improvement in binding relative to Q38L-2D-VCAM-1,[3],11 fold
same,fold-improvement in binding relative to human 2D-VCAM-1,[3],88 fold
same,fold improvement in binding relative to Q38L-2D-VCAM-1,[4],23 fold
"2D-VCAM-1 variant Clone 150 (ligand, not shown: His tag of the E. coli construct) FKIETTPESRYLAQIGDSVSLTCSTTGCESPLFFWRPQLDAPLNGKVTNEGTTSTLTMNPVSFGNEHSYLCTARCESRSLEKGIQVEIYSFPKDPEIHLSGPLEAGKPITVKCSVADVYPFDRLEIDLLKGDHLMKSQEFLEDADRKSLETKSLEVTFTPVIEDIGKVLVCRAKLHIDEMDSVPTVRQAVKELQVYISP",fold-improvement in binding relative to Q38L-2D-VCAM-1,[3],4 fold
same,fold-improvement in binding relative to human 2D-VCAM-1,[3],32 fold
same,fold improvement in binding relative to Q38L-2D-VCAM-1,[4],5 fold
same,Kd,[5],0.417 nM
same,binding affinity for VLA4-Fc relative to human 2D-VCAM-1,[5],36 fold
same,Kd,[6],31.2 nM
same,binding affinity for LPAM-1-Fc relative to human 2D-VCAM-1,[6],8 fold
